Measurements published in publication PMC10530332.

Key:
[1] = target: natural nurse shark UrIg (nurse shark (Ginglymostoma cirratum) (endogenous in nurse shark tissues)); test: non-reducing SDS-PAGE with western blot
[2] = target: recombinant UrIg, 4-domain molecule (V-C1-C2-C3) with C-terminal His tag (nurse shark (Ginglymostoma cirratum)); test: SEC
[3] = target: recombinant UrIg, 4-domain molecule (V-C1-C2-C3) with C-terminal His tag (nurse shark (Ginglymostoma cirratum)); test: SDS-PAGE, non-reducing against reducing

Substance	stoichiometry N [1]	stoichiometry N [2]	stoichiometry N [3]
natural nurse shark UrIg (natural protein)	2		
recombinant UrIg, 4-domain molecule (V-C1-C2-C3) with C-terminal His tag (natural protein)		2	2
